Results published in the supplement of paper PMC10065799, “High-throughput profiling of sequence recognition by tyrosine kinases and SH2 domains using bacterial peptide display” (eLife, 2023).

What was measured:
AncSZ = assay: phosphorylation enrichment, bacterial display (enrichment ratio); higher = better substrate or ligand; peptides without Tyr show the background
EPHB1 = EPHB1 (UniProt P54762); assay: as above
EPHB2 = EPHB2 (UniProt P29323); assay: as above
FGFR1 = FGFR1 (UniProt P11362); assay: as above
FGFR3 = FGFR3 (UniProt P22607); assay: as above
Fer (mouse) = assay: as above
Fes = Fes (UniProt P07332); assay: as above
Chain of Fes (P07332 whole entry, looked up): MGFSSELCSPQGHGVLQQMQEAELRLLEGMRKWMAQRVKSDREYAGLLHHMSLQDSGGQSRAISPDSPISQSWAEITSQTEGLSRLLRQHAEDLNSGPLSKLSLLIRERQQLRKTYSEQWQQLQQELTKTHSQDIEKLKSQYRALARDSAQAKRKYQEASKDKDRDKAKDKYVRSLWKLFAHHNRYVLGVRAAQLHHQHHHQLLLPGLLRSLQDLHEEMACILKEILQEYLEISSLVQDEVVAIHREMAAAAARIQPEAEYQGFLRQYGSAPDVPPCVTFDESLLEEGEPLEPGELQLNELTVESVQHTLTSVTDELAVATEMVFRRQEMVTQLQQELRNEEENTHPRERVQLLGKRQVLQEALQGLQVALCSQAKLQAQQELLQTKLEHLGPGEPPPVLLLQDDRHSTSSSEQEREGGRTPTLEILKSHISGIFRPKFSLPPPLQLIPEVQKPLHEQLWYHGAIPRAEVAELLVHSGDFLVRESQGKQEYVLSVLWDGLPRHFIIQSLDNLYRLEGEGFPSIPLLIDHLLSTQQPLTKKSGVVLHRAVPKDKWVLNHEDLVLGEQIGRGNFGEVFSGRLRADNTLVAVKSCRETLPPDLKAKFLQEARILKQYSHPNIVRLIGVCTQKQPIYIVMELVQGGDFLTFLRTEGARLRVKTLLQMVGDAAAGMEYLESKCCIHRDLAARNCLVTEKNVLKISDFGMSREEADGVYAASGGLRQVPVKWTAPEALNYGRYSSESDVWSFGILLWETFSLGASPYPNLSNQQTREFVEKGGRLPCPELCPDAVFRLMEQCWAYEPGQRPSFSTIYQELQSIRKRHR

Fyn = Fyn (UniProt P06241); assay: as above
Chain of Fyn (P06241 whole entry, looked up): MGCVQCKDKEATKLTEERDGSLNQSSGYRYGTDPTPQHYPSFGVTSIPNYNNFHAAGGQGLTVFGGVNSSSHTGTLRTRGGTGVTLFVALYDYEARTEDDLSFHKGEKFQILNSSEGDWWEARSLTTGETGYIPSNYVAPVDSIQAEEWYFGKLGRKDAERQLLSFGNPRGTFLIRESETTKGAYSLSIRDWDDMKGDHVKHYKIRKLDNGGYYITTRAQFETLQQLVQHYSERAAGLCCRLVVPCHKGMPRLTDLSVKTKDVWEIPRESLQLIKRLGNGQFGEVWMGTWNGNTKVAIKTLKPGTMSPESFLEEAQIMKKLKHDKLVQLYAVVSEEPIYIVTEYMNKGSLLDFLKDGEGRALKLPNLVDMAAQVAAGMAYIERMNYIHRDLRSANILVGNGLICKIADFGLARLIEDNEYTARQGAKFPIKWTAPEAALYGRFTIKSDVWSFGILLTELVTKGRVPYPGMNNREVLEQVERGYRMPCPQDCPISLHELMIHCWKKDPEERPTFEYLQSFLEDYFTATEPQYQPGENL

Hck = Hck (UniProt P08631); assay: as above
Chain of Hck (P08631 whole entry, looked up): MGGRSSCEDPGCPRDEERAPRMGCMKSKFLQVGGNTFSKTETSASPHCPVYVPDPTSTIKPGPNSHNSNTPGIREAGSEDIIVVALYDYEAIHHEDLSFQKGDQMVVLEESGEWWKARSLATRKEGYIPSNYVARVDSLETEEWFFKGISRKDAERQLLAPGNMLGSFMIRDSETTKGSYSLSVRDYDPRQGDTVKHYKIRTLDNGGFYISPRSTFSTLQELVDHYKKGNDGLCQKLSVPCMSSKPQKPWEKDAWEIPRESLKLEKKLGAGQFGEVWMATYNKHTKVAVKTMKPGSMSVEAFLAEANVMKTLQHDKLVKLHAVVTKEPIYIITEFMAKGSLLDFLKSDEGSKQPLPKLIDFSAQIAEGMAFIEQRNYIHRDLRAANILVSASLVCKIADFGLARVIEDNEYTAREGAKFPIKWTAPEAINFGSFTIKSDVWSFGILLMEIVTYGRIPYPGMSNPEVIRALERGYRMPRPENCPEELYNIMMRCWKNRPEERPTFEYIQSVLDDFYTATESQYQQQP

Jak2 = Jak2 (UniProt O60674); assay: as above
MERTK = MERTK (UniProt Q12866); assay: as above
Chain of MERTK (Q12866 whole entry, looked up): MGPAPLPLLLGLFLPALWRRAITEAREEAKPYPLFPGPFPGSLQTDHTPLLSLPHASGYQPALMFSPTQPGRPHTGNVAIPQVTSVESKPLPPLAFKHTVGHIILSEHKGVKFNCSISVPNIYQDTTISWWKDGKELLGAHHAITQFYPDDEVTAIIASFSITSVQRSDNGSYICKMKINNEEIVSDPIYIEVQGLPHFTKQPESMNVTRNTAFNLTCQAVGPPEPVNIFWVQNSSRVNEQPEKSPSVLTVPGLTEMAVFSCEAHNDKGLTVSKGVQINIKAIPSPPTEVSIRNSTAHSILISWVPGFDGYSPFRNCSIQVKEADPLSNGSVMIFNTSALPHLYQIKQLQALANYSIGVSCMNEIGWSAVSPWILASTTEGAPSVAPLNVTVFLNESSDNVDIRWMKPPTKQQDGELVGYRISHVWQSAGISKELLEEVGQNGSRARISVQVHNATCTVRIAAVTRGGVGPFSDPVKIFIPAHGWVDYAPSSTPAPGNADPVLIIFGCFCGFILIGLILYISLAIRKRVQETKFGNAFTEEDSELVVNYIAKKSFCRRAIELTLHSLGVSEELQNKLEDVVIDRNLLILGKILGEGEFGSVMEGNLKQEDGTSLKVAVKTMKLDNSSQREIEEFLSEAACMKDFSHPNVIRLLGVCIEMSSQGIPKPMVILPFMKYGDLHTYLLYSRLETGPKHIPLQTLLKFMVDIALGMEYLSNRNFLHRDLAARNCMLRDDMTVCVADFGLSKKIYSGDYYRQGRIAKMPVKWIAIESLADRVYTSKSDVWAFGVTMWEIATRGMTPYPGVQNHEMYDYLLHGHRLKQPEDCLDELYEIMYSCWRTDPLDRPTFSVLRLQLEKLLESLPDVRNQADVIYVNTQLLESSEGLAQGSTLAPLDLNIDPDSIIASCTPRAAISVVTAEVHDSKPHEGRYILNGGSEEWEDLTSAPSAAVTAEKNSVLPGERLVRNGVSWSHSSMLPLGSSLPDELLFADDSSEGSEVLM

c-Abl (mouse) = assay: as above
c-Src = assay: as above
Grb2 SH2 = Grb2 SH2 (UniProt P62993); assay: SH2 binding enrichment of the phosphorylated peptide, bacterial display (enrichment ratio); higher = better substrate or ligand; peptides without Tyr show the background
SHP2-C SH2 = assay: as above
c-Src SH2 = assay: as above
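Wherever SH2 binding enrichment of the phosphorylated peptide, bacterial display is given: peptide library displayed on the E. coli surface as eCPX fusions, selected cells deep-sequenced, score is each peptide's frequency after selection divided by its frequency in the input.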
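Wherever phosphorylation enrichment, bacterial display is given: 11-residue human phosphosite peptides and single-mutation variants displayed on the E. coli surface, counted by deep sequencing, each peptide's frequency after selection divided by its frequency in the unselected input library; frequency after pTyr selection over input frequency; kinase dosed for 20-30% of maximal phosphorylation in three min.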

Chain of EPHB1 (P54762 whole entry, looked up): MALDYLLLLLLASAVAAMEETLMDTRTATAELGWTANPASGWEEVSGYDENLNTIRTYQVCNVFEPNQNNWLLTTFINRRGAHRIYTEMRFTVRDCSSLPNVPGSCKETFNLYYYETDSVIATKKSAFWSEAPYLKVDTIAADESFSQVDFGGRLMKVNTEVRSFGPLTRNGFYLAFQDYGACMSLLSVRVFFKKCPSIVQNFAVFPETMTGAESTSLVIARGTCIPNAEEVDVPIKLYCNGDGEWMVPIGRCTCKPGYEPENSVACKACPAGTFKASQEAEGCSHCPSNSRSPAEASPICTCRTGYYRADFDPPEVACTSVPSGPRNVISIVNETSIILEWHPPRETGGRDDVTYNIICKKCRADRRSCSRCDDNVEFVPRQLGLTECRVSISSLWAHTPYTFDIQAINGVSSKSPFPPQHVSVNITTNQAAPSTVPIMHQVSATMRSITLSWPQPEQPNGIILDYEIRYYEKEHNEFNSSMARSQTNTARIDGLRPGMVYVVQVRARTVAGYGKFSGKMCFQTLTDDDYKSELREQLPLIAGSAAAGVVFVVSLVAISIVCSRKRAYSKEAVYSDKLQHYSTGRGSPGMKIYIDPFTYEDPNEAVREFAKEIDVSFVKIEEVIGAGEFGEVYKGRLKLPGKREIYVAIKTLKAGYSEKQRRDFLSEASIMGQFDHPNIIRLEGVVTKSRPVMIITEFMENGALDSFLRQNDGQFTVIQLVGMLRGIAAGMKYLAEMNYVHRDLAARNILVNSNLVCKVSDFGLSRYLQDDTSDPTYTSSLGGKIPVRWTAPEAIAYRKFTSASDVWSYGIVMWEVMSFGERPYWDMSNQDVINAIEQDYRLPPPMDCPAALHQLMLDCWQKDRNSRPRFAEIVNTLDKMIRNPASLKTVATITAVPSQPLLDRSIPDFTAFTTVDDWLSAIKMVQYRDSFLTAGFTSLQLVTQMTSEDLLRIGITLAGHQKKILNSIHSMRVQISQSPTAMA
Chain of EPHB2 (P29323 whole entry, looked up): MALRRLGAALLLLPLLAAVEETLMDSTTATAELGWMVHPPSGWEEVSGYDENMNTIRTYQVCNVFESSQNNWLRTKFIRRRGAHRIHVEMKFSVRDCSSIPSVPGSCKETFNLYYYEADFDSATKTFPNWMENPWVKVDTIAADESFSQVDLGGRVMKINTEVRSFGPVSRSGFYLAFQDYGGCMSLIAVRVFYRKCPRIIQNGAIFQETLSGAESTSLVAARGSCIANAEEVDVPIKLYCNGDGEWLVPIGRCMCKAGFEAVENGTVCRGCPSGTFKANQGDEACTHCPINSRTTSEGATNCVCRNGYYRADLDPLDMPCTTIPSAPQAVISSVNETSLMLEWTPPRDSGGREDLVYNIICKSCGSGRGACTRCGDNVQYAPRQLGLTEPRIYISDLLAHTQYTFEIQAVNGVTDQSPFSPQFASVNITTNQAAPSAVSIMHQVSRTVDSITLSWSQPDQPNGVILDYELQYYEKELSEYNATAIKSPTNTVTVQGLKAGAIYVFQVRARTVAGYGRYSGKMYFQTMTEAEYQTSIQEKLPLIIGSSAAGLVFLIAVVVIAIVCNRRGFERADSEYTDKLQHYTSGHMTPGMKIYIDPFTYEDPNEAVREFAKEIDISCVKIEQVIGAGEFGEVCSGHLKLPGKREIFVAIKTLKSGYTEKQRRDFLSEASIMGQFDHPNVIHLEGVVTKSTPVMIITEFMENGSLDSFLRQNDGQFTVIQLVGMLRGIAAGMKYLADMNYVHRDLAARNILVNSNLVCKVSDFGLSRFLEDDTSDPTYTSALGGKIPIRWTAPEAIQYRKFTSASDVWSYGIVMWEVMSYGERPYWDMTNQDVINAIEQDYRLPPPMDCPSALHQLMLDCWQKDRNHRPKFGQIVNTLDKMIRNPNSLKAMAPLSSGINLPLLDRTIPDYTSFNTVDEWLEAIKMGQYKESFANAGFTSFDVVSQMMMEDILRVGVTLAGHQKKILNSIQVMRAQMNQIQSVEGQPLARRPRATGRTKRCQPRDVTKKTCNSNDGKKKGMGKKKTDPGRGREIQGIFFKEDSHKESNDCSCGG

Sequence	SH2 binding enrichment (Grb2 SH2)	SH2 binding enrichment (SHP2-C SH2)	SH2 binding enrichment (c-Src SH2)	phosphorylation enrichment (AncSZ)	phosphorylation enrichment (EPHB1)	phosphorylation enrichment (EPHB2)	phosphorylation enrichment (FGFR1)	phosphorylation enrichment (FGFR3)	phosphorylation enrichment (Fer (mouse))	phosphorylation enrichment (Fes)	phosphorylation enrichment (Fyn)	phosphorylation enrichment (Hck)	phosphorylation enrichment (Jak2)	phosphorylation enrichment (MERTK)	phosphorylation enrichment (c-Abl (mouse))	phosphorylation enrichment (c-Src)
DPTNTYARPAE [SGMS2_Y24]	0.729	0.698	2	1.02	0.466	0.581	0.598	0.481	0.33	0.785	0.457	0.506	0.639	0.516	0.696	0.372
KLIETCFSKNY [PLP1_Y50_Y50C]	0.748	0.652	0.447	1.07	0.576	0.555	0.473	0.739	0.47	1.38	0.456	0.621	1.13	0.474	0.973	0.524
WDLSEYSYKDP [ITGA3_Y237]	0.932	0.704	0.878	1.85	0.424	0.568	0.513	0.631	0.449	0.998	0.914	0.673	0.997	0.416	0.614	0.916
FEPWVYSLSYE [PRKDC_Y647_F649L]	0.812	0.568	0.674	1.6	0.749	0.767	0.602	0.893	1.77	1.49	7.16	4.72	1.33	1.6	0.707	6.59
NTGNFYDLFGG [PTPN11_Y63_D61N_YF]	1.19	0.833	0.887	0.844	0.436	0.548	0.537	0.641	3.08	0.955	6.58	4.7	0.796	7.84	0.766	4.88
DENCFYTRAAS [RPS19_Y54_W52C]	0.868	3.23	0.942	1	0.587	0.554	0.594	0.728	0.485	0.936	0.569	0.576	0.841	0.461	0.675	0.722
KTKLGYSPLHQ [ANK1_Y735]	1.2	1.05	0.849	0.454	0.296	0.326	0.31	0.385	0.354	0.48	0.373	0.322	0.397	0.399	0.691	0.369
RENGPYYTSYP [GDAP2_Y487]	1.09	0.597	0.955	1.17	0.896	1.45	3.44	3.32	0.618	1.05	2.55	1.98	0.863	5.69	1.55	3.17
HDEPTYARSSK [PEAK1_Y616]	0.92	0.819	0.576	0.785	0.478	0.321	0.389	0.575	0.57	1.03	0.519	0.918	1.01	0.679	0.864	1.29
FIPFRYPKEFQ [IDS_Y234_H229Y_YF]	0.876	0.613	0.534	0.705	0.316	0.494	0.465	0.516	0.323	0.883	0.469	0.469	0.548	0.409	0.595	0.565
CHSDDYVHISL [TSC1_Y406]	0.762	0.593	0.539	1.27	0.768	0.65	1.23	1.07	0.491	1.13	0.502	0.554	0.958	0.436	0.781	0.495
EVTLTYATGIK [NFKB1_Y485_T489I]	0.916	0.646	0.413	0.896	0.475	0.424	0.421	0.634	0.473	1.15	0.477	0.555	1.06	0.404	0.66	0.508
GTSLIYWILFT [G6PC3_Y214_T216I]	0.742	0.695	0.593	1.18	1	0.749	1.17	1.38	0.55	1.56	2.42	1.74	1.59	1.46	1.43	2.67
FSNVLYRPRGP [TMIGD2_Y197_A202P_YF]	0.693	0.794	0.506	0.549	0.429	0.399	0.367	0.444	0.397	0.674	0.438	0.479	0.959	0.434	0.568	0.463
YQLPYYNMVPS [BMPR1A_Y458]	11.4	1.73	5.08	2.75	2.58	2.52	13.1	10.5	5.67	0.802	3.36	3.28	10.4	8.84	3.96	5.1
PLLLSYFLIKW [NUP160_Y773_YF]	1.13	1.04	0.662	1.37	0.909	0.622	1.53	1.73	0.37	1.8	0.561	0.761	3.01	0.558	1.33	0.684
FKDVTYLKEEK [UBE3A_Y127_T129K]	0.823	0.465	0.642	0.891	0.466	0.447	0.481	0.728	0.49	1.28	0.514	0.442	0.986	0.38	0.809	0.523

Second part, led by results:

SH2 binding enrichment (Grb2 SH2)	SH2 binding enrichment (SHP2-C SH2)	SH2 binding enrichment (c-Src SH2)	Sequence	phosphorylation enrichment (AncSZ)	phosphorylation enrichment (EPHB1)	phosphorylation enrichment (EPHB2)	phosphorylation enrichment (FGFR1)	phosphorylation enrichment (FGFR3)	phosphorylation enrichment (Fer (mouse))	phosphorylation enrichment (Fes)	phosphorylation enrichment (Fyn)	phosphorylation enrichment (Hck)	phosphorylation enrichment (Jak2)	phosphorylation enrichment (MERTK)	phosphorylation enrichment (c-Abl (mouse))	phosphorylation enrichment (c-Src)
0.979	0.789	0.8	SRDDDYETIAM [NPY1R_Y347]	1.75	1.31	1.03	0.599	0.753	1.11	1.28	0.612	0.737	1.16	0.5	0.977	0.562
1.04	0.63	0.671	PVDNLYAEPAV [PRPS1_Y146]	2.52	5.2	9.31	0.61	0.986	4.64	1.31	1.96	3.99	1.02	6.34	8.54	1.56
1.63	1.51	1.28	QFFQGYFNNNF [ZNF236_Y644_S643G]	1.15	0.545	0.496	0.643	0.845	0.356	1.2	0.42	0.574	1.55	0.58	1.23	0.721
0.993	1.09	0.578	FDNPVYQKTTE [LDLR_Y828]	0.737	0.605	0.497	0.5	0.498	0.424	0.864	0.759	0.933	0.549	0.453	0.438	0.531
0.938	1.02	0.571	TEAEPYFRSLR [NPHS1_Y1138_YF]	0.852	0.448	0.519	0.399	0.639	0.494	0.953	0.557	0.511	0.843	0.447	0.758	0.477
0.722	0.889	14.1	TEGNGYISFNE [LCP1_Y28_D24E]	1.09	0.734	0.595	0.468	0.636	0.487	1.01	0.539	0.528	0.823	0.499	0.723	0.573
2.05	1.91	1.32	KKGIVYVFNGR [ITGAV_Y404_I405V]	0.756	0.458	0.449	0.527	0.538	0.441	0.677	0.477	0.486	0.73	0.48	0.443	0.395
1.47	3.41	1.1	ISHVAYLVLGK [TRRAP_Y892_R893L]	0.95	0.805	0.5	0.535	0.75	0.505	1.07	0.507	0.485	0.996	0.53	0.588	0.454
0.776	0.769	0.49	ARVANYHRDGP [CAT_Y386_Q387H]	0.523	0.309	0.378	0.519	0.394	0.372	0.514	0.44	0.36	0.491	0.385	0.457	0.395
1.36	0.722	0.747	HIAKVYRRDNP [HARS1_Y156]	0.982	0.36	0.463	0.451	0.772	0.507	0.989	0.775	0.592	0.659	0.734	1.24	1.02
1.59	2.07	1.15	NFDRIYIFHLR [MYOF_Y1137_V1136I_YF]	1.53	0.732	0.705	0.594	0.791	0.606	1.42	0.605	0.507	1.46	0.524	0.993	0.724
0.814	0.719	0.573	GSETPYVDRTP [ESS2_Y335]	0.711	0.408	0.477	0.488	0.553	0.409	0.821	0.451	0.429	0.813	0.466	0.603	0.453
0.748	0.674	0.498	SKEPYYVRCIK [MYO1D_Y586]	1.06	0.566	0.511	0.58	0.669	0.501	0.966	0.417	0.405	1	0.403	0.705	0.451
0.783	0.801	0.593	TGILLHGLASR [QARS1_Y57_Y57H]	0.417	0.28	0.328	0.367	0.379	0.218	0.629	0.281	0.301	0.488	0.419	0.528	0.469
0.75	0.659	0.502	LNCIFYKDQTG [RS1_Y166_W163C_YF]	1.56	1.1	1.34	0.563	1.06	1.44	2.08	0.552	0.774	2.06	0.798	1.24	1.31
0.571	0.692	0.401	TKDTFYKQPMF [GBA_Y451]	0.583	0.257	0.37	0.389	0.42	0.362	0.638	0.419	0.39	0.535	0.385	0.954	0.42
